Common to all, as to experiment: SPR, KD relative to WT C2;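 further: biacore SPR at 37 °C, anti-C2 mAbs captured on anti-human IgG chips with alanine or serine point mutants of C2 as analyte, KD from 1:1 fit compared with wild-type C2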
In general terms: Surface plasmon resonance follows binding to a sensor surface in real time, without labels.

Assay [1] deals with T1, human C2 G466A (human, UniProt P06681 21-752).
T1 sequence: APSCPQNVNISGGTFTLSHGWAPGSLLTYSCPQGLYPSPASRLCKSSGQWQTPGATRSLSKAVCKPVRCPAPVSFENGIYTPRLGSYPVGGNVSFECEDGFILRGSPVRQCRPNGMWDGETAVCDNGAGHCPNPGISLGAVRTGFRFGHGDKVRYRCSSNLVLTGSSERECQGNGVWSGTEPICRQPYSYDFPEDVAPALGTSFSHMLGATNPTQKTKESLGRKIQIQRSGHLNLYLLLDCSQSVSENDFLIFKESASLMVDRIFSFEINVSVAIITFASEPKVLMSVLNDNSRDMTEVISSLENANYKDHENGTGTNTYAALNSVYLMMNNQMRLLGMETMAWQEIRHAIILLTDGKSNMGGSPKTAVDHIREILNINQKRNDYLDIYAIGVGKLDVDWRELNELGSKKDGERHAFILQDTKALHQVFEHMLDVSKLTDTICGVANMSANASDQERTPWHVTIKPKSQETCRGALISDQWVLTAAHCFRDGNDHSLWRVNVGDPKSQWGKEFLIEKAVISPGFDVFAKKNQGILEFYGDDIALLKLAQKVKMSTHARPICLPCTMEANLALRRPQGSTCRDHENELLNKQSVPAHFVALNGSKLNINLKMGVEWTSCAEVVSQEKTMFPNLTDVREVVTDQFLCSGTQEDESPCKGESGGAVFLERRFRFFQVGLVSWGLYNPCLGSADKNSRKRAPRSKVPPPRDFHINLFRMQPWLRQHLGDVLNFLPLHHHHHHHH

Assay [2] concerns the target T2, human C2 A472S (human, UniProt P06681 21-752).
T2 sequence: T1 sequence with A446G, A452S

In assay [3] the target is T3, human C2 D431A (human, UniProt P06681 21-752).
T3 sequence: T1 sequence with D411A, A446G

Assay [4] addresses T4, human C2 E450A (human, UniProt P06681 21-752).
T4 sequence: T1 sequence with E430A, A446G

Fold diff data for one molecule are collected here from patent publication US20220332804A1 (CSL INNOVATION, published 2022).

Numbering of substitutions follows the chain as printed.

B1: RF16-242 (antibody, human IgG4 S228P, lambda, V domains shown)
VH: EVQLLQSGAEVKKPGESLKISCKGSGYSFTSYWIGWVRQMPGKGLEWMGIIYPGDSDTRYSPSFQGQVTISADKSISTAYLQWSSLKASDTAMYYCARRGHYGDYFDYWGQGTLVTVSS
VL: SYELTQPPSVSVSPGQTARITCSGDALPKKYAYWYHQKSGQAPVLVIYEDRRRPSEIPERFSGSSSGTMATLTITGAQVEDEGVYFCYSRDRAGNQRVFGGGTQLTVLG
notes: pH-dependent anti-C2 antibody from a phage display library
With B1, the Fold diff in assay [1] was 4 fold; in assay [2] it was 7 fold; in assay [3], 3 fold; in assay [4], 3 fold.
